Assay results published in patent US20250215097A1 (BEIJING TIANNUOJIANCHENG PHARMA TECH, published 2025).
Each block holds one binder with its values, some of them ahead of it.

Assays:
human CCR4 = target: T1, human CCR4 (human, UniProt P51679 1-360); experiment: flow cytometry of purified Fab on cells stably expressing human CCR4
T1 construct: also called hCCR4; human CCR4+ cells
T1 sequence: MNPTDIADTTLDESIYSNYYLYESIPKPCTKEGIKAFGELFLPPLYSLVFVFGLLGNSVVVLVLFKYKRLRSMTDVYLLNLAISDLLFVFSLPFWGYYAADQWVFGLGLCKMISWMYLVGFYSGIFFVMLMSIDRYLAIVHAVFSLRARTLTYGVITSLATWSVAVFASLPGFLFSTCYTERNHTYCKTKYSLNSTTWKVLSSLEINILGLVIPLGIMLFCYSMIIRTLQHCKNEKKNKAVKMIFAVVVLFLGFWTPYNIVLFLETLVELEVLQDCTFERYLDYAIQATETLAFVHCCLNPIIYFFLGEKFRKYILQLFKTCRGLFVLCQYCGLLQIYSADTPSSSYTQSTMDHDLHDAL
Protocol: (§1) The positive clones obtained in example 1 were re-induced to express and purified to obtain a Fab antibody. The binding to cells stably expressing human CCR8, cynomolgus monkey CCR8 and human CCR4 was tested respectively, 5×10⁴ test cells were added to each well of a 96-well U-shaped plate and centrifuged to discard the supernatant, 100 μL/well of the purified Fab antibody was added and the mixture was incubated on ice for 60 minutes. After washing away the unbound primary antibody, 50 μL of a secondary antibody solution (Anti-human IgG, F(ab′)2-AF647, Jackson Immuno Research) was added to each well and the mixture was incubated on ice for 30 minutes. After washing, 50 μL of a PI/BSA solution at 5 μg/mL was added to each well and the mixture was incubated on ice for 5 minutes. Then excess secondary antibody was washed away with 0.5% BSA, the cells were resuspended by adding a PBS solution, and binding of the antibody to the cells was detected using a flow cytometer (Intellicyte iQue).

cynomolgus monkey CCR8 [1] = target: T2, cynomolgus monkey CCR8 (cynomolgus monkey, UniProt O97665 1-356 (rhesus entry)); experiment: flow cytometry of purified Fab on cells stably expressing cynomolgus monkey CCR8
T2 construct: Full-length, stably expressed on CHO cells; also called cynoCCR8; CHO-cynoCCR8
Protocol: as §1

cynomolgus monkey CCR8 [2] = target: T2, cynomolgus monkey CCR8; experiment: flow cytometry, chimeric IgG on CHO-cynoCCR8 cells
Protocol: (§2) 5×10⁴ CHO-hCCR8 or CHO-cynoCCR8 cells were added per well in a 96-well U-shaped plate and centrifuged to discard the supernatant, 100 μL of a gradiently diluted anti-CCR8 chimeric antibody or anti-KLH isotype control antibody was added per well and the mixture was incubated on ice for 60 minutes. After the unbound primary antibody was washed away, 50 μL of a secondary antibody AlexaFluro647 anti-human IgG (Jackson Immuno Research #109-606-170) was added per well and the mixture was incubated on ice for 30 minutes. After the washing, 50 μL of 5 μg/mL of a PI/BSA solution was added to each well and the mixture was incubated on ice for 5 minutes. Then excess secondary antibody was washed away with 0.5% BSA, the cells were resuspended by adding a PBS solution, and binding of the antibody to the cells was detected using a flow cytometer (Intellicyte iQue). The fluorescence value of a Pi-negative cell population was analyzed. Cell-binding curves were fitted by Graphpad Prism 7 (FIG. 2). The chimeric antibodies of 87D8, 102H5, 109F6, 110G2, 113B3, 139A9, 144D2, etc. all bound with high affinities to human CCR8+ cells CHO-hCCR8 and cynomolgus monkey CCR8+ cells CHO-cynoCCR8.

cynomolgus monkey CCR8 [3] = target: T2, cynomolgus monkey CCR8; experiment: flow cytometry on CHO-cynoCCR8 cells, parental chimeric antibody
Protocol: (§3) 5×10⁴ CHO-hCCR8 or CHO-cynoCCR8 cells were added per well in a 96-well U-shaped plate and centrifuged to discard the supernatant. 100 μL of a gradiently diluted anti-CCR8 chimeric antibody was added per well and the mixture was incubated on ice for 60 minutes. After the unbound primary antibody was washed away, 50 μL, of a secondary antibody AlexaFluro647 anti-human IgG (Jackson Immuno Research #109-606-170) was added per well and the mixture was incubated on ice for 30 minutes. After the washing, 50 μL of 5 μg/mL of a Pi/BSA solution was added to each well and the mixture was incubated on ice for 5 minutes. Then excess secondary antibody was washed away with 0.5% BSA, the cells were resuspended by adding a PBS solution, and binding of the antibody to the cells was detected using a flow cytometer (BD Celesta). The fluorescence value of a PI-negative cell population was analyzed. Cell-binding curves were fitted by Graphpad Prism 7.

human CCR8 [4] = target: T3, human CCR8 (human, UniProt P51685 1-355); experiment: flow cytometry on CHO-hCCR8 cells, parental chimeric antibody
T3 construct: Full-length human CCR8 stably expressed on CHO or HEK293 cells; also endogenous on HuT78 cells in one ADCC assay; also called hCCR8; CHO-hCCR8
Protocol: as §3

human CCR8 [5] = target: T3, human CCR8; experiment: flow cytometry, chimeric IgG on CHO-hCCR8 cells
Protocol: as §2

human CCR8 [6] = target: T3, human CCR8; experiment: cell-based or functional assay
human CCR8 [7] = target: T3, human CCR8; experiment: cell-based or functional assay; remark: listed apart in the source
human CCR8 [8] = target: T3, human CCR8; experiment: cell-based or functional assay; remark: listed apart in the source
human CCR8 [9] = target: T3, human CCR8; experiment: flow cytometry on CHO-hCCR8 cells
Protocol: as §3

cynomolgus monkey CCR8 [10] = target: T2, cynomolgus monkey CCR8; experiment: flow cytometry on CHO-cynoCCR8 cells
Protocol: as §3

T2 sequence (O97665 other isoform, or with tags, fused parts or gaps): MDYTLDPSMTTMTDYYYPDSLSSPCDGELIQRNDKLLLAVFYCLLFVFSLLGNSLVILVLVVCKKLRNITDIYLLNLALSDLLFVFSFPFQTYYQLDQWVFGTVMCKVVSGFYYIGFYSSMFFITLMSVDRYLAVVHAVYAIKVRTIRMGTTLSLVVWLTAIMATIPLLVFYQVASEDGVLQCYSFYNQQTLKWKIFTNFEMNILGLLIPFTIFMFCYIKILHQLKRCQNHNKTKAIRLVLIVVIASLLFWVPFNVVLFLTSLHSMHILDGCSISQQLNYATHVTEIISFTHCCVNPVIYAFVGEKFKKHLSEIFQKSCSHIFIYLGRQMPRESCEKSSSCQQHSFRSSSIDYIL
T3 sequence (P51685 whole entry): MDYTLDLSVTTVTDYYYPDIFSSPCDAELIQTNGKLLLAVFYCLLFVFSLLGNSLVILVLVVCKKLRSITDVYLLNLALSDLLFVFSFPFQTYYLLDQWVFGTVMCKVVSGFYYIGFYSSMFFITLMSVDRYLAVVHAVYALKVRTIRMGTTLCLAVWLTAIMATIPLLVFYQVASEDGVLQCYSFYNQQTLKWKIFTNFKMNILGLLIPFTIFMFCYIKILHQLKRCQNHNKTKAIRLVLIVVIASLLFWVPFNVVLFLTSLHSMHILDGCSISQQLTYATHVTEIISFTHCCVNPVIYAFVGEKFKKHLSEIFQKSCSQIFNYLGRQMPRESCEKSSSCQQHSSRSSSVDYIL

- binding result (human CCR4): no binding
- binding result (cynomolgus monkey CCR8 [1]): binds
B1: 29A8 Fab antibody (Fab, V domains shown)
VH: EVQLVESGGGLVQPKGSLKLSCAASGFTFNAFAMNWVRQAPGKGLEWVARIRSKSNNYATYYADSVIDRFTISRDDSQSMLYLQMNNLKTEDTAMYYCVRGKEAGAYYAMDYWGQGTSVTVSS
VL: DIVMTQAAPSVPVTPGESVSISCRSSKSLLHSNGNTYLYWFLQRPGQSPQLLIYRMSNLASGVPDRFSGSGSGTAFTLRISKVEAEDVGVYYCMQHLEYPFTFGGGTKLEIK
notes: detected with anti-human IgG F(ab')2; also called clone 29A8

- EC50 (cynomolgus monkey CCR8 [2]): 2.75 nM
- EC50 (cynomolgus monkey CCR8 [3]): 1.32 nM
- EC50 (human CCR8 [4]): 0.88 nM
- EC50 (human CCR8 [5]): 1.08 nM
- ADCC EC50 (nM), NK92-CD16A effectors, HEK293-hCCR8 targets, LDH release (human CCR8 [6]): 0.07 nM
B2: 144D2 anti-CCR8 chimeric antibody (antibody, V domains shown)
VH: EVQLVESGGGLVQPKGSLKLSCAASGFTFNAFAMNWVRQAPGKGLEWVARIRSKSNNYATYYADSVIDRFTISRDDSQSMLYLQMNNLKTEDTAMYYCVRGKEAGAYYAMDYWGQGTSVTVSS
VL: DIVMTQAAPSVPVTPGESVSISCRSSKSLLHSNGNTYLYWFLQRPGQSPQLLIYRMSNLASGVPDRFSGSGSGTAFTLRISRVEAEDVGVYYCMQHLEYPLTFGAGTKLEIK

- EC50 (cynomolgus monkey CCR8 [2]): 1.92 nM
- ADCC EC50 (nM), PBMC FcγRIIIA158F/F effectors, HEK293-hCCR8 targets (human CCR8 [7]): 0.08 nM
- ADCC EC50 (nM), PBMC FcγRIIIA158V/V effectors, HEK293-hCCR8 targets (human CCR8 [7]): 0.05 nM
- ADCC maximal lysis rate, PBMC FcγRIIIA158F/F effectors, HEK293-hCCR8 targets (human CCR8 [7]): 68%
- ADCC maximal lysis rate, PBMC FcγRIIIA158V/V effectors, HEK293-hCCR8 targets (human CCR8 [7]): 76%
- EC50 (cynomolgus monkey CCR8 [3]): 1.78 nM
- EC50 (human CCR8 [4]): 0.57 nM
- ADCC maximal lysis rate, NK92-CD16A effectors, HEK293-hCCR8 targets (human CCR8 [8]): 33%
- EC50 (human CCR8 [5]): 0.71 nM
- ADCC EC50 (nM), NK92-CD16A effectors, HEK293-hCCR8 targets, LDH release (human CCR8 [6]): 0.1 nM
B3: 87D8 anti-CCR8 chimeric antibody (antibody, V domains shown)
VH: EVQLVESGGGLVQPKGSLRLSCAASGFTFNTYAMNWVRQAPGKGLEWIARIRSKSNNYATYYADSVKDRFTISRDDSQSMLYLQMNNLKTEDTAMYYCVRGKEAGAYYAMDYWGQGTSVTVSS
VL: DIVMTQAAPSVPVTPGESVSISCRSSKSLLHSNGNTYLYWFLQRPGQSPQLLIYRMSNLASGVPDRFSGSGSGTAFTLRISRVEAEDVGVYYCMQHLEYPLTFGAGTKLELK

- binding result (human CCR4): no binding
- binding result (cynomolgus monkey CCR8 [1]): binds
B4: 30A7 Fab antibody (Fab, V domains shown)
VH: QVQLVESGGGLVQPKGSLKLSCAASGFTFNTYAMNWVRQAPGKGLEWVARIRSKSNYYATYYADSVKDRFTISRDDSQSMLYLQMNNLKTEDTAMYYCLRGKEAGAYYAMDYWGQGTSVTVSS
VL: DIVMTQAAPSVPVTPGESVSISCRSSKSLLHSNGNTYLYWFLQRPGQSPQLLIYRMSNLASGVPDRFSGSGSGTAFTLRISRVEAEDVGVYYCMQHLEYPFTFGAGTKLEIK
notes: also called clone 30A7

- EC50 (human CCR8 [9]): 0.53 nM
- EC50 (cynomolgus monkey CCR8 [10]): 1.19 nM
- ADCC half-maximal effective concentration (EC50), NK92-CD16A effectors, HEK293-hCCR8 targets (human CCR8 [8]): 0.01 nM
B5: h87D8 H1K1 (antibody, human IgG1, V domains shown)
VH: EVQLVESGGGLVQPGGSLRLSCAASGFTFNTYAMNWVRQAPGKGLEWVARIRSKSNNYATYYADSVKGRFTISRDDSQSSLYLQMNSLRAEDTAVYYCVRGKEAGAYYAMDYWGQGTLVTVSS
VL: DIVMTQSPLSLPVTPGEPASISCRSSKSLLHSNGNTYLYWFLQKPGQSPQLLIYRMSNLASGVPDRFSGSGSGTDFTLKISRVEAEDVGVYYCMQHLEYPLTFGQGTKLEIK
notes: Humanized; also called h87D8 VHv1+h87D8 VKv1

- EC50 (human CCR8 [9]): 0.89 nM
- EC50 (cynomolgus monkey CCR8 [10]): 1.16 nM
- ADCC half-maximal effective concentration (EC50), NK92-CD16A effectors, HEK293-hCCR8 targets (human CCR8 [8]): 0.02 nM
B6: h144D2 H1K1 (antibody, human IgG1, V domains shown)
VH: EVQLVESGGGLVQPGGSLRLSCAASGFTFNAFAMNWVRQAPGKGLEWVARIRSKSNNYATYYADSVKGRFTISRDDSQSSLYLQMNSLRAEDTAVYYCVRGKEAGAYYAMDYWGQGTLVTVSS
VL: DIVMTQSPLSLPVTPGEPASISCRSSKSLLHSNGNTYLYWFLQKPGQSPQLLIYRMSNLASGVPDRFSGSGSGTDFTLKISRVEAEDVGVYYCMQHLEYPLTFGQGTKLEIK
notes: Humanized; also called h144D2 VHv1+h87D8 VKv1

- EC50 (cynomolgus monkey CCR8 [2]): 1.99 nM
- EC50 (human CCR8 [5]): 0.4 nM
- ADCC EC50 (nM), NK92-CD16A effectors, HEK293-hCCR8 targets, LDH release (human CCR8 [6]): 0.04 nM
B7: 113B3 anti-CCR8 chimeric antibody (antibody, V domains shown)
VH: EVQLVESNGGLVQPKGSLKLSCAASGFTFNAYAMNWVRQAPGKGLEWVARIRSKSNNYATYYADSVKDRFTISRDDSQSMLYLQMNNLKTEDTAMYFCVRQKFGSRGYYALDFWGQGATVTVSS
VL: QIVLTQSPAIMSASLGERVTMTCTASSSVSSSYLHWYQQKPGSSPKLWIYSTSNLASGVPARFSGSGSGTSYSLTISSMEAEDAATYYCHQYHRSPRTFGGGTRLEIK

- EC50 (cynomolgus monkey CCR8 [2]): 1.25 nM
- EC50 (human CCR8 [5]): 0.58 nM
- ADCC EC50 (nM), NK92-CD16A effectors, HEK293-hCCR8 targets, LDH release (human CCR8 [6]): 0.1 nM
B8: 116F10 anti-CCR8 chimeric antibody (antibody, V domains shown)
VH: EVQLVESYGGLVQPKGSLKLSCAASGFTFNAYAMNWVRQAPGKGLEWVARIRSKSNNYATYYADSVKDRFTISRDDSQNILYLQMNNLKIEDTAMYFCVRQKFGSRGYYALDFWGQGASVTVSS
VL: EIVLTQSPAIMSVSPGEKVTMTCRASSSVSSSYLHWYQQKSGASPKLWIYSTSTLASGVPARFSGSGSGTSYSLTISSVEAEDAATYYCQHYTVYPLGTFGGGTKLEIK

- EC50 (cynomolgus monkey CCR8 [2]): 1.99 nM
- EC50 (human CCR8 [5]): 0.49 nM
- ADCC EC50 (nM), NK92-CD16A effectors, HEK293-hCCR8 targets, LDH release (human CCR8 [6]): 0.06 nM
B9: 139A9 anti-CCR8 chimeric antibody (antibody, V domains shown)
VH: QVQLVESNGRLVQPKGSLKLSCAASGFTFNAYAMNWVRQAPGKGLEWVARIRSKSNNYATYYADSVKDRFTISRDDSQSMLYLQMNNLKTEDTAMYFCVRQKFGARGYYALDFWGQGASVTVSS
VL: ENVLTQSPTTMAASPGEKITITCSASSSISSNYLHWYQQKPGFSPKLLIYRTSNLASGVPARFSGSGSGTSYSLTIGTMEAEDVATYYCQQGSSIPLTFGAGTKLELK
